One block for each binder: values may come before it.
Key:
[1] = target: T1, GPC-1 (MIL-38 antigen) expressed by human cancer cell lines DU-145, T-24, PANC-1 and MDA-MB-231 (human, UniProt P35052 24-530); test: flow cytometry, CY5-labelled scFv on DU-145 cells
T1 construct: whole, on cells; also called GPC-1 on the cell surface
T1 sequence (looked up): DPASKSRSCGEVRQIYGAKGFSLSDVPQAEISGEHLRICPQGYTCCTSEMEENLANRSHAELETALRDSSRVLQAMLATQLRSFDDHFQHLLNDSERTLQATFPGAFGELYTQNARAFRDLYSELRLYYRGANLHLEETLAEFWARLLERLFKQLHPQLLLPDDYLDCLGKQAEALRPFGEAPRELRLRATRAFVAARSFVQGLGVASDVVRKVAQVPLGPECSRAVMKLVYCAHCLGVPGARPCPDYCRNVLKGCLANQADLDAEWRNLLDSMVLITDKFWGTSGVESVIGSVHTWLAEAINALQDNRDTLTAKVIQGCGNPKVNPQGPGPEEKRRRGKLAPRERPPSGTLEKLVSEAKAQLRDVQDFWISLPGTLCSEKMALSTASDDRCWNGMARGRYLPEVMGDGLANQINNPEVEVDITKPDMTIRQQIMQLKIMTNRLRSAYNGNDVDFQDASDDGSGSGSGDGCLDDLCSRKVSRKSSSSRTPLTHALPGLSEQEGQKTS

[2] = target: T2, recombinant human GPC-1 (NS0-produced glypican-1 antigen) (human, UniProt P35052 24-530); test: western blot, three-antibody detection
T2 construct: Bought recombinant protein; also called recombinant NS0 GPC-1; NS0-produced recombinant GPC-1 antigen
T2 sequence (looked up): T1 sequence (looked up)

[3] = target: T1, GPC-1 (MIL-38 antigen) expressed by …; test: binding to DU-145 cells, graded in Table 4
[4] = target: T1, GPC-1 (MIL-38 antigen) expressed by …; test: flow cytometry on DU-145 cells (FIG. 10)
[5] = target: T2, recombinant human GPC-1 (NS0-produced …); test: direct binding ELISA, GPC-1 coated
[6] = target: T2, recombinant human GPC-1 (NS0-produced …); test: western blot, anti-mouse HRP detection
Method: Briefly, after transfer membranes were blocked with 5% skim milk in PBS-Tween (0.1%) for 2 h at room temperature. Primary antibodies (1 μg/ml in 5% skim milk—PBS-Tween (0.1%) were applied and incubated overnight at 4° C. After washing (3×10 min PBS-Tween (0.1%)) membranes were incubated with secondary antibody (1:2000 sheep-anti-mouse HRP-labelled in 5% skim milk—PBS-Tween (0.1%)). After washing (3×10 min PBS-Tween (0.1%)) antigen was detected by using ECL detection kit (Biorad) and imaging with LAS4000 mini (GE Life Science).

binding result [4]: binds
binding result [5]: binds
B3: chimeric MIL-38 DOTA conjugate (antibody, human IgG1, kappa)
heavy: not shown
light: DIQMTQSPASLSASVGETVTITCRASGNVHNYLAWYQQKQGKSPQLLVYTAKTLADGVPSRFSGSGSGTQYSLKINSLQPEDFGTYYCQHFWSNPWTFGGGTKLEIKRTVAAPSVFIFPPSDEQLKSGTASVVCLLNNFYPREAKVQWKVDNALQSGNSQESVTEQDSKDSTYSLSSTLTLSKADYEKHKVYACEVTHQGLSSPVTKSFNRGEC
modifications: p-SCN-Bn-DOTA conjugated; sites not stated; p-SCN-Bn-DOTA conjugated; 4.3, 4.6 or 7.5 DOTA per MAb for 5, 10 or 20 fold excess; sites not stated
notes: also called chMIL-38 DOTA; DOTA-cMIL-38

binding result [6]: binds
binding result [3]: binds
B4: murine MIL-38 monoclonal antibody, AM4 population, clone 1F5 (hybridoma CBA20140026) (antibody, mouse IgG1, kappa)
heavy: QIQLVQSGPELKKPGETVKISCKASGYAFTDYSMNWVKQAPGKGLRWMGWINTETGEPTYTDDFKGRFAFSLETSASTAFLQINNLRNEDTATYFCARHYDYGGFPYWGQGTLVTVSAAKTTPPSVYPLAPGSAAQTNSMVTLGCLVKGYFPEPVTVTWNSGSLSSGVHTFPAVLQSDLYTLSSSVTVPSSTWPSETVTCNVAHPASSTKVDKKIVPRDCGCKPCICTVPEVSSVFIFPPKPKDVLTITLTPKVTCVVVDISKDDPEVQFSWFVDDVEVHTAQTQPREEQFNSTFRSVSELPIMHQDWLNGKEFKCRVNSAAFPAPIEKTISKTKGRPKAPQVYTIPPPKEQMAKDKVSLTCMITDFFPEDITVEWQWNGQPAENYKNTQPIMDTDGSYFVYSKLNVQKSNWEAGNTFTCSVLHEGLHNHHTEKSLSHSPGK
light: DIQMTQSPASLSASVGETVTITCRASGNVHNYLAWYQQKQGKSPQLLVYTAKTLADGVPSRFSGSGSGTQYSLKINSLQPEDFGTYYCQHFWSNPWTFGGGTKLEIKRADAAPTVSIFPPSSEQLTSGGASVVCFLNNFYPKDINVKWKIDGSERQNGVLNSWTDQDSKDSTYSMSSTLTLTKDEYERHNSYTCEATHKTSTSPIVKSFNRNEC
notes: Mouse IgG1 kappa; Leader 1-19 (heavy) and 1-20 (light) are stated and left out; 1F5 is named an AM4 clone; also called AM4 MIL-38; AM4 1F5

The next lines start with the binder.

B1: scFv MIL-38 (scFv)
scFv: QIQLVQSGPELKKPGETVKISCKASGYAFTDYSMNWVKQAPGKGLRWMGWINTETGEPTYTDDFKGRFAFSLETSASTAFLQINNLRNEDTATYFCARHYDYGGFPYWGQGTLVTVSSGGGGSGGGGSGGGGSDIQMTQSPASLSASVGETVTITCRASGNVHNYLAWYQQKQGKSPQLLVYTAKTLADGVPSRFSGSGSGTQYSLKINSLQPEDFGTYYCQHFWSNPWTFGGGTKLEIKHHHHHHC
modifications: CY5 fluorophor label (site not stated)
notes: VH (20-137), gly/ser linker (138-152), VL (153-259), hexa-His tag (260-265), C-terminal cysteine (266); Leader 1-19 is stated and left out; also called MIL-38 scFv; scFv MIL-38 construct
binding result [1]: binds

B2: chimeric MIL-38 antibody (mouse VH-human CH1-CH3 heavy chain, mouse VK-human CK light chain) (antibody)
heavy: not shown
light: B3 light
notes: Human IgG1 kappa constant regions; also called chMIL-38; MIL-38 chimeric antibody
binding result [2]: binds
binding result [3]: binds
